According to article PMC10841698 (Cell, 2023):
Where two headings read alike, the source gives them in different places.

Tests used:
[1] = biological target: T1, human full-length RECK without a tag (human, UniProt O95980 23-942); assay: cryo-EM structure
T1 sequence (looked up): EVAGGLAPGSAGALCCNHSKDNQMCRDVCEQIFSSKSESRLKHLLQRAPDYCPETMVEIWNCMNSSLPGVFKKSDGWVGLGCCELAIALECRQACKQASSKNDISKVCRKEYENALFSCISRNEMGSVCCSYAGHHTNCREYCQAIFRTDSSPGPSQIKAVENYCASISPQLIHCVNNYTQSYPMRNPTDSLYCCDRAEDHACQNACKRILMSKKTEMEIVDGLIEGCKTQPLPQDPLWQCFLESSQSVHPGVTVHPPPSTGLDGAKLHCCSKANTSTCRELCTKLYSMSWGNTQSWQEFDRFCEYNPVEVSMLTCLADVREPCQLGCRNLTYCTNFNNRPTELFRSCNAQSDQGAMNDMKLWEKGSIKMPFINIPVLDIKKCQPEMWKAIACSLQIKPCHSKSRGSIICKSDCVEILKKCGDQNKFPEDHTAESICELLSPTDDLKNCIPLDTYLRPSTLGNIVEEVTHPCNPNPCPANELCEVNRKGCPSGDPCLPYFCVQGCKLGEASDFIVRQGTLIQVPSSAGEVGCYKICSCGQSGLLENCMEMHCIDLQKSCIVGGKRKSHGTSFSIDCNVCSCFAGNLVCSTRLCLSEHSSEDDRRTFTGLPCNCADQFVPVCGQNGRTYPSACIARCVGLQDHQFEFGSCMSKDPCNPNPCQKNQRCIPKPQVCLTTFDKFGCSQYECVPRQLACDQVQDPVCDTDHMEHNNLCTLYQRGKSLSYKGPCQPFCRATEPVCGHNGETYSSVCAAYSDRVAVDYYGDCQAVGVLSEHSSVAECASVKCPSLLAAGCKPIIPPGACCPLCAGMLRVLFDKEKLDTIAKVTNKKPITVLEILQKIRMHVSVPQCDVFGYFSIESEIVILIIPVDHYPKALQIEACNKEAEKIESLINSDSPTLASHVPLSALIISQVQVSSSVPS

[2] = biological target: T2, endogenous calreticulin (CALR) of HEK293 cells (human (endogenous in HEK293S GnTI-), UniProt P27797 18-417); assay: cryo-EM structure
T2 sequence (looked up): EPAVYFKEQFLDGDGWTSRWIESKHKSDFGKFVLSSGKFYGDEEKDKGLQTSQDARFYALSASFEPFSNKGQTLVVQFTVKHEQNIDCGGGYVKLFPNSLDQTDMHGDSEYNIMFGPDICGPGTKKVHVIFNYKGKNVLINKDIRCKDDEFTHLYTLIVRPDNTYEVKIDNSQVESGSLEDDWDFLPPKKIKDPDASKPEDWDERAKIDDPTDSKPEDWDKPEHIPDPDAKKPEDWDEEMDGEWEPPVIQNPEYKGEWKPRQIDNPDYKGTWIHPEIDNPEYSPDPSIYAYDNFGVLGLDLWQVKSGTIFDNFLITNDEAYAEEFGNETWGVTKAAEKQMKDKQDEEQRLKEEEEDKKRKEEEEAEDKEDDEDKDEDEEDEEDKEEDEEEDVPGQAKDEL

[3] = biological target: T3, human Wntless (WLS) with a C-terminal Flag tag (human, UniProt Q5T9L3 1-541); assay: co-IP
T3 sequence: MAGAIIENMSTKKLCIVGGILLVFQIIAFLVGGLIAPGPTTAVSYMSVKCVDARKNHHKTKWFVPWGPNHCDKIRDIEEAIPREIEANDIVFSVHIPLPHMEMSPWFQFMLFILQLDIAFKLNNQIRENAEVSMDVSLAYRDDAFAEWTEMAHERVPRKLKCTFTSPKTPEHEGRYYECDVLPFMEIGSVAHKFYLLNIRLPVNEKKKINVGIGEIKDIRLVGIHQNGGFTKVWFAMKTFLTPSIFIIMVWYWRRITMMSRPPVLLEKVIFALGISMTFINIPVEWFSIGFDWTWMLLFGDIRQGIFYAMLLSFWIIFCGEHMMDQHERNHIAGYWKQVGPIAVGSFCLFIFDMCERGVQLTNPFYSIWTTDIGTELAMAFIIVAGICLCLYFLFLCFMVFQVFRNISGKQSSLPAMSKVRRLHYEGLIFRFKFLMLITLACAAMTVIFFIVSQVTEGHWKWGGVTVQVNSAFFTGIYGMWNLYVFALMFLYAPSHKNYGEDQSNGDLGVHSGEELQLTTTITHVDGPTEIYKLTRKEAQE

[4] = biological target: T2, endogenous calreticulin (CALR) of …; assay: cryo-EM structure; remark: listed apart in the source
[5] = biological target: T3, human Wntless (WLS) with a C-terminal …; assay: cryo-EM structure

B1: human Wnt7a with a C-terminal GG linker and 6xHis tag (ligand, UniProt O00755 32-349, looked up)
chain: LGASIICNKIPGLAPRQRAICQSRPDAIIVIGEGSQMGLDECQFQFRNGRWNCSALGERTVFGKELKVGSREAAFTYAIIAAGVAHAITAACTQGNLSDCGCDKEKQGQYHRDEGWKWGGCSADIRYGIGFAKVFVDAREIKQNARTLMNLHNNEAGRKILEENMKLECKCHGVSGSCTTKTCWTTLPQFRELGYVLKDKYNEAVHVEPVRASRNKRPTFLKIKKPLSYRKPMDTDLVYIEKSPNYCEEDPVTGSVGTQGRACNKTAPQASGCDLMCCGRGYNTHQYARVWQCNCKFHWCCYVKCNTCSERTEMYTCK
modifications: palmitoleate moiety (PAM) on the conserved serine of hairpin 2; N-glycan at Asn295
binding result [1]: binds | binding result [2]: binds

B2: human Wnt7a with a C-terminal GG linker and Strep tag (ligand, UniProt O00755 32-349, looked up)
chain: B1 chain
modifications: palmitoleate moiety (PAM) on the conserved serine of hairpin 2; N-glycan at Asn295
binding result [3]: binds

B3: human Wnt3a without a tag (ligand, UniProt P56704 19-352, looked up)
chain: SYPIWWSLAVGPQYSSLGSQPILCASIPGLVPKQLRFCRNYVEIMPSVAEGIKIGIQECQHQFRGRRWNCTTVHDSLAIFGPVLDKATRESAFVHAIASAGVAFAVTRSCAEGTAAICGCSSRHQGSPGKGWKWGGCSEDIEFGGMVSREFADARENRPDARSAMNRHNNEAGRQAIASHMHLKCKCHGLSGSCEVKTCWWSQPDFRAIGDFLKDKYDSASEMVVEKHRESRGWVETLRPRYTYFKVPTERDLVYYEASPNFCEPNPETGSFGTRDRTCNVSSHGIDGCDLLCCGRGHNARAERRREKCRCVFHWCCYVSCQECTRVYDVHTCK
modifications: palmitoleate moiety (PAM); N-glycan at Asn298
binding result [4]: binds | binding result [5]: binds
